# Measurements from IntAct's records for PubMed 21572435.
# B1: ETS translocation variant 1 (Homo sapiens), P50549-1 (parent)
# chain: MDGFYDQQVPYMVTNSQRGRNCNEKPTNVRKRKFINRDLAHDSEELFQDLSQLQETWLAEAQVPDNDEQFVPDYQAESLAFHGLPLKIKKEPHSPCSEISSACSQEQPFKFSYGEKCLYNVSAYDQKPQVGMRPSNPPTPSSTPVSPLHHASPNSTHTPKPDRAFPAHLPPSQSIPDSSYPMDHRFRRQLSEPCNSFPPLPTMPREGRPMYQRQMSEPNIPFPPQGFKQEYHDPVYEHNTMVGSAASQSFPPPLMIKQEPRDFAYDSEVPSCHSIYMRQEGFLAHPSRTEGCMFEKGPRQFYDDTCVVPEKFDGDIKQEPGMYREGPTYQRRGSLQLWQFLVALLDDPSNSHFIAWTGRGMEFKLIEPEEVARRWGIQKNRPAMNYDKLSRSLRYYYEKGIMQKVAGERYVYKFVCDPEALFSMAFPDNQRPLLKTDMERHINEEDTVPLSHFDESMAYMPEGGCCNPHPYNEGYVY
# Variants of: B1
# Settings: with COP1, Q8NHY2-1
# Sequence of COP1, Q8NHY2-1 (Q8NHY2 whole entry): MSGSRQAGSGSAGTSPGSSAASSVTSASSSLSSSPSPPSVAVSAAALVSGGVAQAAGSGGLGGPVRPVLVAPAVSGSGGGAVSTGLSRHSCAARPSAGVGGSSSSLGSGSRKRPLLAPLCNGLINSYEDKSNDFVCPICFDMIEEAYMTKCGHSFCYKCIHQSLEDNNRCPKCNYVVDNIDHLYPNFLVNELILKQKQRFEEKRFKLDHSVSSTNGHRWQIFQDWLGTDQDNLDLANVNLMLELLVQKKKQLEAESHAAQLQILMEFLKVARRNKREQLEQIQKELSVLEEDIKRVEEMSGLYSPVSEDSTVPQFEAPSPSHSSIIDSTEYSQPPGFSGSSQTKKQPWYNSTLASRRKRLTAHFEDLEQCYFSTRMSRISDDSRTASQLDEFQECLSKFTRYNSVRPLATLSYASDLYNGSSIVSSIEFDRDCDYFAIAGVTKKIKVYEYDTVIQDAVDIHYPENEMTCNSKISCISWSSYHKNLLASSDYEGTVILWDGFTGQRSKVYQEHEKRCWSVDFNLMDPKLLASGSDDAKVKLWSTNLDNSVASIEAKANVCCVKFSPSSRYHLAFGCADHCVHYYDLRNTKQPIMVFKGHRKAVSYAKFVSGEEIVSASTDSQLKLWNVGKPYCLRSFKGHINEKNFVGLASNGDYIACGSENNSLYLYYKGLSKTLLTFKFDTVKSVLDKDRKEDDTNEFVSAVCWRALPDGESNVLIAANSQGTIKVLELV
row,Variant,effect of a mutation on the interaction
1,V63A;P64A;V71A;P72A,decreasing interaction
2,V71A;P72A,decreasing interaction
